Assay results taken from the supplement of paper PMC12042874.
± gives the uncertainty stated by the source.

Assay: amyloid nucleation score (Sup35N fusion, yeast selection) (log enrichment); library NNK1; higher = more nucleation; inactive = no reads after selection
Procedure, shortened: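 Output and input plasmid inserts were sequenced by Illumina after psi-negative yeast carrying Sup35N fused to peptides of 20 random codons had been induced 24 hours with 100 μM copper sulfate and grown 7 days at 30°C on medium lacking adenine and uracil. The nucleation score is the DiMSum log enrichment of output over input reads, centred on the mode score of non-aggregating sequences. Sequences with under 100 input reads were excluded.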

Substance	amyloid nucleation score
EYVVRYSCMWRE	0.485 ± 1.2
FAAVPYISVLIRRLCLPYRT	1.07 ± 0.7
FALIRN	-0.368 ± 1.7
FALLFRLFRW	0.539 ± 0.28
FALVRTLTRSKSSFTTSQIK	0.524 ± 0.47
FANLVYGQLRVNDTLVSCT	-0.044 ± 0.33
FAQECLFMSVDLCLR	0.125 ± 1.1
FAWGREVRLEIEY	0.371 ± 0.31
FAWSRAACFSIPVRISVSLG	1.14 ± 0.72
FCIYVLFFRSVDYPLRVVEL	-0.529 ± 0.67
FCLMMEVGSVLRNLVPVSFR	-0.122 ± 1.4
FCQGYRLGS	0.19 ± 0.48
FCSNPAGWSSWSPE	0.182 ± 0.9
FCTHHWG	-0.382 ± 0.6
FDAMSANLESIYFSFNENMY	-0.572 ± 0.56
FDATFVMLRSRAFFKICKER	0.751 ± 0.27
FDIFVDLFFMGALSMRPAAQ	-0.241 ± 1.1
FDNLWRQYYVIGWILARAFS	-0.983 ± 0.9
FDQLEGLRCASSWKLLSSPG	0.062 ± 0.8
FDVLVIFGFDTNRDACSDAL	0.174 ± 0.38
FEECLM	-0.059 ± 0.44
FEGAW	-0.187 ± 1
FEGILIKFCFGAWESDKVTM	1.36 ± 0.59
FEHWCFRLPCVKDESCWD	0.821 ± 0.8
FELGWMYSYKMAKLPWYMTC	0.362 ± 0.99
FELTVGIWQHWRT	0.45 ± 0.5

Substance	amyloid nucleation score
FERCLNPGYCINFAGCESVV	0.581 ± 0.51
FESTNVLPISGTSAGSV	1.18 ± 0.74
FEYCCFSYEIVLELARFRGF	-0.535 ± 1.7
FFAHNRTMSRRNQAFGF	0.86 ± 1.1
FFCLSIHVYSG	0.46 ± 0.97
FFCWTCSAINLYRLLGPPMF	5.67 ± 0.064
FFELYRVLCTNAFLWCKGYV	-0.423 ± 0.44
FFHAIIWRLIYRQFPDFVG	0.984 ± 0.43
FFIICSYR	-0.868 ± 0.37
FFILSFNIRIYIFEVVTFLK	0.555 ± 0.52
FFILYINSQLIREVILRRAH	-0.128 ± 0.23
FFLAV	-0.158 ± 0.64
FFLEAACYSIFGVEK	-0.612 ± 0.3
FFLLIFSVRGNPFFIKW	-0.153 ± 0.66
FFRDSHYIQRDKSQPSRGSN	-0.269 ± 1.1
FFRMMKSLFQMRVRIDCRMG	-0.653 ± 1.4
FFSSNNRWRTLYNLHCSEFA	0.24 ± 0.56
FFTIQMGYMALGMW	1.16 ± 0.23
FFVFSSLGHLV	0.859 ± 0.26
FFWHVS	0.091 ± 0.65
FGGKHFYVGGRFGLLNMCDF	-0.548 ± 2.1
FGGSLMASFDCTRPSSMER	-0.606 ± 1.6
FGIWIRGFRTYDECHPAHGC	0.434 ± 0.41
FGLHCINLNWVEKWFDIDGP	-0.245 ± 0.84
FGMNLILHCTPTQRTYISPV	2.83 ± 0.092
FGNSFRSQGVSFM	0.414 ± 0.32

Substance	amyloid nucleation score
FGSARGHSGY	1.52 ± 0.18
FGVEYWWSLGCVWGTLLGYN	inactive
FGYTVFIDFVSSGMMRFGGQ	0.784 ± 0.48
FHAWSVFFIVRCLTEVRGYL	-0.081 ± 0.34
FHEDKIS	1.34 ± 0.36
FHGDLA	-0.57 ± 0.26
FHICGFRYSHLGREPMKFGI	2.23 ± 0.19
FHQDFDSWF	0.362 ± 0.51
FHSSGFVVYMLIVRGSPSMR	0.218 ± 0.27
FHVVSFQGETCDHRIGRIVY	0.002 ± 0.33
FIAIDLS	1.31 ± 0.45
FIFCAGCVENNTSSPK	6.224 ± 0.059
FIFWGDLFWV	-0.992 ± 0.32
FIIDYKTDKRSEFWL	0.215 ± 0.35
FIITWILTKNMKLGEVYSIS	-0.132 ± 0.72
FINGFGEDLKHIREVEVYLY	4.07 ± 0.084
FIQCVFHVCLRV	4.68 ± 0.073
FIRASWCSRIYIKFVN	0.587 ± 0.43
FIRCVNSV	-0.745 ± 2.4
FIRFTICALTSKVDFI	0.811 ± 0.74
FIRTRLIIYLSEDGYPVA	1.31 ± 0.21
FISPFCIVSYIIC	5.846 ± 0.054
FISPLSISLHQWVLSSKYRE	7.394 ± 0.044
FIVDLWCMLFNSILAGCVVV	-0.008 ± 0.21
FIVFISFSFWRVTGIR	-0.139 ± 0.59
FIVTYSNTIRYSMPSKLPWQ	3.26 ± 0.077

Substance	amyloid nucleation score
FIWSVTYSGP	1.48 ± 0.72
FKAHRMVLHGYIGSMERG	-0.186 ± 1.1
FKDGLCYCNSGVS	-0.452 ± 0.39
FKEER	0.133 ± 1.4
FKGRNSFPLLDSWVIHRIGI	0.422 ± 0.9
FKRRKSFAHCRFAGVVRRWW	-0.581 ± 1.2
FKTTDHFVGVYCLLYAKKQG	-0.235 ± 0.77
FKVNRHLPELHLCKGTEWKL	inactive
FLCEAFDQGNLVIIDP	-0.502 ± 0.46
FLDLSGMPGSVWFDIGVSCF	-0.716 ± 1
FLDYKTSSGHRLYLDRAKES	-0.492 ± 0.36
FLEFWPSVTVYSRCFLVFGR	-1.06 ± 1.1
FLFYRCLGVKFFVFFMIVSK	-0.817 ± 2.4
FLGGDTRIDHGTLWWSLIRQ	0.032 ± 0.35
FLIFIRFNGHCLSIGWFTLH	0.303 ± 1
FLISWTIVMHVCTMTDACCR	inactive
FLNMASIFNFLHTNRF	0.054 ± 1.2
FLNTNEKIKMQPIFPFFLLL	-0.495 ± 0.65
FLRRIGMGYIRLRVLGSIFL	0.854 ± 0.49
FLRSIKWVTVVS	0.51 ± 0.28
FLSVASFTRI	0.246 ± 0.32
FLSYDMLYVKLT	2.44 ± 0.16
FLVSCYPWVE	0.248 ± 0.71
FLWDL	0.268 ± 0.75
FLWVTWYFSTVFYVNWALE	0.505 ± 0.89
FLYGYGADPMPMSSVGRGVK	-0.864 ± 0.51

Substance	amyloid nucleation score
FLYVLDSVSCQ	0.648 ± 0.69
FMELEELCSCNERGLLWTPA	1.6 ± 0.27
FMGFISACQRMIIIMYVFRT	-0.126 ± 0.28
FMISRFLAMRILRTAIWRED	0.447 ± 0.78
FMMCAYSLVPILLP	0.136 ± 1.1
FMNGLGPAVAYIMGYTYVSM	6.369 ± 0.063
FNKVYMSSIVASKVVKMRLI	-0.476 ± 0.75
FNVAAVVGWMKRLIDRSRNT	1.3 ± 0.88
FNVCLSKESVNLGRD	0.486 ± 0.39
FNYVICYSLCVVFWARRWCN	1.75 ± 0.14
FPCSRIELVVSVCVAWVNSC	1.42 ± 0.28
FPDELESWRTSASPRVAPMG	-0.247 ± 1.9
FPDGEYPMTYTLWELKYVFV	-0.487 ± 0.65
FPDYVDTTFRQIWECLWFFP	inactive
FPEFIVFRMRIVYIVSFRTW	1.06 ± 0.47
FPLSTQ	2.37 ± 0.43
FPRLGCARTFSDHSMLACTI	0.098 ± 0.59
FQASSLTGPH	-0.574 ± 0.36
FQTFSSICYMISFLIVG	0.928 ± 0.68
FRFMVLGLVSLGIGV	-0.59 ± 0.62
FRFSHRLFLWPKYFSIFKNS	0.37 ± 0.35
FRGSLIFSISVIKVISVLSE	2.11 ± 0.14
FRGSRELNMSSQGVGACLIR	-0.399 ± 0.88
FRGYSGL	1.46 ± 0.55
